From PMC4894380

Molecular target: T1, MqsA (Escherichia coli (strain of the protein not stated)) (UniProt Q46864)
T1 sequence: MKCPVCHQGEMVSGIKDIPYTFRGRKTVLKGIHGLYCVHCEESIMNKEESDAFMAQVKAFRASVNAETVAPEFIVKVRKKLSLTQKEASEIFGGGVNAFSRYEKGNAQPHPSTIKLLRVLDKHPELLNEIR
Test: EMSA
Settings: 10 mM Tris-HCl pH 7.5, 50 mM KCl, 1 mM DTT, 1 ug poly(dI.dC), 30-50 fmol labeled probe, ambient temperature, 1 h; 6% gel, 0.5x TBE

CGTGTATGTGGTGTGCGTTTTTCCATAACCCCCGCCTCCCTGTTACTTTAGTTATAACCTAAAAGGTTAATTACAGCAATGAAAAAGCACCTAAAAGGTTAGTTAGATGTACGGAGATAGTGACCACACAAAACGTATTCTTTAAGGAAAGTGATTGACCATATAAGAAAGTGGCGCATTAGTAGCGCCAGTTTGAAGCAGGAATTTATAAGGGAAGCTGGAGTCAGGCATCAC (double strand) [p-mqsRA (234 bp)]
binding: binds
